# Reference: article PMC9482650, “Quantitative fragmentomics allow affinity mapping of interactomes” (Nature Communications, 2022)
# T1: APBA3_1, O96018
# T1 sequence (O96018 389-490, limits assumed, looked up): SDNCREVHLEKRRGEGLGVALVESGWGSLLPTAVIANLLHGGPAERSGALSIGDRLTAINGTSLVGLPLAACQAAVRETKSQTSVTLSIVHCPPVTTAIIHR
# T2: DLG3_3, Q92796
# T2 sequence (Q92796 374-475, limits assumed, looked up): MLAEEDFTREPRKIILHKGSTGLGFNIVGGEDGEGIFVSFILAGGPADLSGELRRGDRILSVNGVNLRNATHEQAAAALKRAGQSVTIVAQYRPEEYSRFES
# T3: LIN7B, Q9HAP6
# T3 sequence (Q9HAP6 88-185, limits assumed, looked up): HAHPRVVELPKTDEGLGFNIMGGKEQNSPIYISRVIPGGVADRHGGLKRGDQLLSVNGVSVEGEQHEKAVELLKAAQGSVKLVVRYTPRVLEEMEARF
# T4: LRRC7, Q96NW7
# T4 sequence (Q96NW7 1440-1537, limits assumed, looked up): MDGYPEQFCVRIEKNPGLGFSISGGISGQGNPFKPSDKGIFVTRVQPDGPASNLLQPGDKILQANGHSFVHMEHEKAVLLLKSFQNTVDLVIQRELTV
# T5: MPDZ_10, O75970
# T5 sequence (O75970 1624-1722, limits assumed, looked up): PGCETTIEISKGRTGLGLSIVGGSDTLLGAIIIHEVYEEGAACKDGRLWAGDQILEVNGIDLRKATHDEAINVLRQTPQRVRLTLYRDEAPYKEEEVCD
# T6: MPP6, Q9NZW5
# T6 sequence (Q9NZW5 125-219, limits assumed, looked up): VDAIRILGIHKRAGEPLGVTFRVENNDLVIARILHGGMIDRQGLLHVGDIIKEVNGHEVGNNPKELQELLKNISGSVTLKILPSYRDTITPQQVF
# T7: PARD3B_1, Q8TEW8
# T7 sequence (Q8TEW8 196-299, limits assumed, looked up): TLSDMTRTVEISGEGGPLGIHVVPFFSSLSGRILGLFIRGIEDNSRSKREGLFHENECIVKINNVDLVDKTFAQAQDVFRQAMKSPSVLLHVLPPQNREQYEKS
# T8: RADIL, Q96JH8
# T8 sequence (Q96JH8 971-1071, limits assumed, looked up): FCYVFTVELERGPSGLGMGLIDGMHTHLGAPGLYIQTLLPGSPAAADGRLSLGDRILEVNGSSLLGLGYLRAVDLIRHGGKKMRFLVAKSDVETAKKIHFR
# T9: SNTG2, Q9NY99
# T9 sequence (Q9NY99 68-166, limits assumed, looked up): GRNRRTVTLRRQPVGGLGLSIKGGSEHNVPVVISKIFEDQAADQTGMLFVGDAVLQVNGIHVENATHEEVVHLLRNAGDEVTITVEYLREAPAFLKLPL
# T10: SYNJ2BP, P57105
# T10 sequence (P57105 8-110, limits assumed, looked up): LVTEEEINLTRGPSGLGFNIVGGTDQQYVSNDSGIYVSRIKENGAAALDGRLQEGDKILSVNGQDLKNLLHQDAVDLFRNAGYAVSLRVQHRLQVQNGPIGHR
# Legend:
# Test in all cases: holdup assay
# Parameters in all cases: key: below the threshold = too weak to quantify, mostly under pKd 3.1 to 4
# AHNAK1, Q09666 = target: AHNAK1, Q09666
# APBA3_1, O96018 = target: T1, APBA3_1, O96018
# DLG1_3, Q12959 = target: DLG1_3, Q12959
# DLG3_3, Q92796 = target: T2, DLG3_3, Q92796
# DLG4_3, P78352 = target: DLG4_3, P78352
# DLG5_1, Q8TDM6 = target: DLG5_1, Q8TDM6
# FRMPD3, Q5JV73 = target: FRMPD3, Q5JV73
# GRASP, Q7Z6J2 = target: GRASP, Q7Z6J2
# IL16_4, Q14005 = target: IL16_4, Q14005
# Inadl_2, Q8NI35 = target: Inadl_2, Q8NI35
# Inadl_6, Q8NI35 = target: Inadl_6, Q8NI35
# Inadl_9, Q8NI35 = target: Inadl_9, Q8NI35
# LIN7B, Q9HAP6 = target: T3, LIN7B, Q9HAP6
# LRRC7, Q96NW7 = target: T4, LRRC7, Q96NW7
# MAGI1_2, Q96QZ7 = target: MAGI1_2, Q96QZ7
# MAST1, Q9Y2H9 = target: MAST1, Q9Y2H9
# MPDZ_10, O75970 = target: T5, MPDZ_10, O75970
# MPP6, Q9NZW5 = target: T6, MPP6, Q9NZW5
# NHERF2_2, Q15599 = target: NHERF2_2, Q15599
# NHERF4_1, Q86UT5-2 = target: NHERF4_1, Q86UT5-2
# NOS1, P29475 = target: NOS1, P29475
# PARD3B_1, Q8TEW8 = target: T7, PARD3B_1, Q8TEW8
# PARD3_3, Q8TEW0 = target: PARD3_3, Q8TEW0
# RADIL, Q96JH8 = target: T8, RADIL, Q96JH8
# SNTG2, Q9NY99 = target: T9, SNTG2, Q9NY99
# SNX27, Q96L92 = target: SNX27, Q96L92
# SYNJ2BP, P57105 = target: T10, SYNJ2BP, P57105
# TJP2_1, Q9UDY2 = target: TJP2_1, Q9UDY2
# [1] = plain residues with an end cap or a label only (N-terminal biotin on a linker: ado-ado)
# [2] = plain residues with an end cap or a label only (N-terminal biotin on a linker: ahx)
# Chain of GRASP, Q7Z6J2 (Q7Z6J2 96-193): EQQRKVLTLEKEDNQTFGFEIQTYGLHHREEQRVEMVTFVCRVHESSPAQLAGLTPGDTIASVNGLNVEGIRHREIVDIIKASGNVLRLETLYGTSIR
# Chain of TJP2_1, Q9UDY2 (Q9UDY2 24-128): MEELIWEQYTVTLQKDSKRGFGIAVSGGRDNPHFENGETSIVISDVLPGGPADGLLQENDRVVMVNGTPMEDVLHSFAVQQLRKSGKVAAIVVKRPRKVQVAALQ
# Chain of Inadl_2, Q8NI35 (Q8NI35 238-335): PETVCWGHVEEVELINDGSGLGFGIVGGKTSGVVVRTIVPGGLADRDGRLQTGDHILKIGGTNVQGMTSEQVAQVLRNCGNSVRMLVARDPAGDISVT
# Chain of AHNAK1, Q09666 (Q09666 4-100): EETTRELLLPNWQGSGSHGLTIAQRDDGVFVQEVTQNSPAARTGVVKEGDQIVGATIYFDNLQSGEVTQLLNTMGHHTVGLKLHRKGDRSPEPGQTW
# Chain of PARD3_3, Q8TEW0 (Q8TEW0 582-685): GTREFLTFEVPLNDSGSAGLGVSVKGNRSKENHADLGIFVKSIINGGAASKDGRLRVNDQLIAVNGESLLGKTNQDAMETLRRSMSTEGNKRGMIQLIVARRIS
# Chain of NHERF2_2, Q15599 (Q15599 142-238): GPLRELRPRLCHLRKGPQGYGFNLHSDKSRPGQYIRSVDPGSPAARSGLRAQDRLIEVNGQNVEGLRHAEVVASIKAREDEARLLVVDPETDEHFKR
# Chain of Inadl_6, Q8NI35 (Q8NI35 1058-1167): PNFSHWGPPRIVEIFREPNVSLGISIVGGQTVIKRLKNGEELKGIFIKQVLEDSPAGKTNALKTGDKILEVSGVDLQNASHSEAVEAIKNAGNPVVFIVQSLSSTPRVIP
# Chain of MAGI1_2, Q96QZ7 (Q96QZ7 456-580): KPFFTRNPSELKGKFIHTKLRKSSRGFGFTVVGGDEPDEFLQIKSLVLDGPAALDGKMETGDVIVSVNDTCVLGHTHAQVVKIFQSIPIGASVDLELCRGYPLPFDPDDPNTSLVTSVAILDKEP
# Chain of MAST1, Q9Y2H9 (Q9Y2H9 962-1065): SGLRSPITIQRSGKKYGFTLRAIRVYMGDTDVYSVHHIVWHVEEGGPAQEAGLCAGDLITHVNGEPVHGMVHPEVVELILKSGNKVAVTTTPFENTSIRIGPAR
# Chain of FRMPD3, Q5JV73 (Q5JV73 12-100): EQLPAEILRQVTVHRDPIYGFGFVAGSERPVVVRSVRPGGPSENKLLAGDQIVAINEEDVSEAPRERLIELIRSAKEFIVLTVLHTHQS
# Chain of DLG5_1, Q8TDM6 (Q8TDM6 617-713): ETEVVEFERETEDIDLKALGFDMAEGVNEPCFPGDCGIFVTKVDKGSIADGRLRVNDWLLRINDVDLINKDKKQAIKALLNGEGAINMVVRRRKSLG
# Chain of Inadl_9, Q8NI35 (Q8NI35 1530-1615): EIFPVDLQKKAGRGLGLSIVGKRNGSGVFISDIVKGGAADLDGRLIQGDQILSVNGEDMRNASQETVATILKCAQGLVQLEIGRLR
# Chain of DLG4_3, P78352 (P78352 306-403): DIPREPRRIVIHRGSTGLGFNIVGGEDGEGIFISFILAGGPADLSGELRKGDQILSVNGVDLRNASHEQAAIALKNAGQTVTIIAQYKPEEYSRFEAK
# Chain of IL16_4, Q14005 (Q14005 1229-1329): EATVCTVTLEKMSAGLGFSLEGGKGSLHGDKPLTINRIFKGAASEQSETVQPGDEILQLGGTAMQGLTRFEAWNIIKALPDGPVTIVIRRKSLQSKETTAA
# Chain of DLG1_3, Q12959 (Q12959 457-571): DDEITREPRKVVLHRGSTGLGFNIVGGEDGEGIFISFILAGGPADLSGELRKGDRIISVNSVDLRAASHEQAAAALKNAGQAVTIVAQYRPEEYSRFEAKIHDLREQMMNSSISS
# Chain of NOS1, P29475 (P29475 9-101): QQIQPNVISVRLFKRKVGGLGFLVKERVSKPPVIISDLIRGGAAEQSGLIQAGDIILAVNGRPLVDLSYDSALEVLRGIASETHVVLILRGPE
# Chain of NHERF4_1, Q86UT5-2 (Q86UT5 other isoform, or with tags, fused parts or gaps): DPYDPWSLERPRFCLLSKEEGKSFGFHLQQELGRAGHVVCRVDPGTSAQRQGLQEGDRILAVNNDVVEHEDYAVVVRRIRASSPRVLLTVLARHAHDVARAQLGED
binder,measurement,setting,value
"SVTSERETNI [SLC16A7, O60669]",pKd,"AHNAK1, Q09666; [1]",below the threshold
same,pKd,"APBA3_1, O96018; [1]",below the threshold
same,pKd,"DLG1_3, Q12959; [1]",below the threshold
same,pKd,"DLG3_3, Q92796; [1]",below the threshold
same,pKd,"DLG4_3, P78352; [1]",below the threshold
same,pKd,"DLG5_1, Q8TDM6; [1]",below the threshold
same,pKd,"FRMPD3, Q5JV73; [1]",below the threshold
same,pKd,"GRASP, Q7Z6J2; [1]",below the threshold
same,pKd,"IL16_4, Q14005; [1]",3.49
same,pKd,"Inadl_2, Q8NI35; [1]",below the threshold
same,pKd,"Inadl_6, Q8NI35; [1]",below the threshold
same,pKd,"Inadl_9, Q8NI35; [1]",below the threshold
same,pKd,"LIN7B, Q9HAP6; [1]",3.62
same,pKd,"LRRC7, Q96NW7; [1]",below the threshold
same,pKd,"MAGI1_2, Q96QZ7; [1]",below the threshold
same,pKd,"MAST1, Q9Y2H9; [1]",4.14
same,pKd,"MPDZ_10, O75970; [1]",below the threshold
same,pKd,"MPP6, Q9NZW5; [1]",3.52
same,pKd,"NHERF2_2, Q15599; [1]",below the threshold
same,pKd,"NHERF4_1, Q86UT5-2; [1]",below the threshold
same,pKd,"NOS1, P29475; [1]",below the threshold
same,pKd,"PARD3B_1, Q8TEW8; [1]",below the threshold
same,pKd,"PARD3_3, Q8TEW0; [1]",below the threshold
same,pKd,"RADIL, Q96JH8; [1]",below the threshold
same,pKd,"SNTG2, Q9NY99; [1]",4.51
same,pKd,"SNX27, Q96L92; [1]",4.74
same,pKd,"SYNJ2BP, P57105; [1]",3.63
same,pKd,"TJP2_1, Q9UDY2; [1]",below the threshold
"LPAVCYDIDI [PTTG2, Q9NZH5]",pKd,"AHNAK1, Q09666; [1]",below the threshold
same,pKd,"APBA3_1, O96018; [1]",below the threshold
same,pKd,"DLG1_3, Q12959; [1]",below the threshold
same,pKd,"DLG3_3, Q92796; [1]",below the threshold
same,pKd,"DLG4_3, P78352; [1]",below the threshold
same,pKd,"DLG5_1, Q8TDM6; [1]",below the threshold
same,pKd,"FRMPD3, Q5JV73; [1]",below the threshold
same,pKd,"GRASP, Q7Z6J2; [1]",below the threshold
same,pKd,"IL16_4, Q14005; [1]",below the threshold
same,pKd,"Inadl_2, Q8NI35; [1]",below the threshold
same,pKd,"Inadl_6, Q8NI35; [1]",below the threshold
same,pKd,"Inadl_9, Q8NI35; [1]",below the threshold
same,pKd,"LIN7B, Q9HAP6; [1]",3.53
same,pKd,"LRRC7, Q96NW7; [1]",below the threshold
same,pKd,"MAGI1_2, Q96QZ7; [1]",below the threshold
same,pKd,"MAST1, Q9Y2H9; [1]",4.08
same,pKd,"MPDZ_10, O75970; [1]",below the threshold
same,pKd,"MPP6, Q9NZW5; [1]",3.54
same,pKd,"NHERF2_2, Q15599; [1]",below the threshold
same,pKd,"NHERF4_1, Q86UT5-2; [1]",below the threshold
same,pKd,"NOS1, P29475; [1]",below the threshold
same,pKd,"PARD3B_1, Q8TEW8; [1]",below the threshold
same,pKd,"PARD3_3, Q8TEW0; [1]",4.29
same,pKd,"RADIL, Q96JH8; [1]",below the threshold
same,pKd,"SNTG2, Q9NY99; [1]",below the threshold
same,pKd,"SNX27, Q96L92; [1]",below the threshold
same,pKd,"SYNJ2BP, P57105; [1]",below the threshold
same,pKd,"TJP2_1, Q9UDY2; [1]",below the threshold
"QNTDDVQTSF [ACE2, Q9BYF1]",pKd,"AHNAK1, Q09666; [2]",below the threshold
same,pKd,"APBA3_1, O96018; [2]",below the threshold
same,pKd,"DLG1_3, Q12959; [2]",below the threshold
same,pKd,"DLG3_3, Q92796; [2]",below the threshold
same,pKd,"DLG4_3, P78352; [2]",below the threshold
same,pKd,"DLG5_1, Q8TDM6; [2]",below the threshold
same,pKd,"FRMPD3, Q5JV73; [2]",3.78
same,pKd,"GRASP, Q7Z6J2; [2]",4.29
same,pKd,"IL16_4, Q14005; [2]",below the threshold
same,pKd,"Inadl_2, Q8NI35; [2]",below the threshold
same,pKd,"Inadl_6, Q8NI35; [2]",below the threshold
same,pKd,"Inadl_9, Q8NI35; [2]",below the threshold
same,pKd,"LIN7B, Q9HAP6; [2]",below the threshold
same,pKd,"LRRC7, Q96NW7; [2]",below the threshold
same,pKd,"MAGI1_2, Q96QZ7; [2]",below the threshold
same,pKd,"MAST1, Q9Y2H9; [2]",4.6
same,pKd,"MPDZ_10, O75970; [2]",below the threshold
same,pKd,"MPP6, Q9NZW5; [2]",below the threshold
same,pKd,"NHERF2_2, Q15599; [2]",4.29
same,pKd,"NHERF4_1, Q86UT5-2; [2]",3.65
same,pKd,"NOS1, P29475; [2]",below the threshold
same,pKd,"PARD3B_1, Q8TEW8; [2]",3.82
same,pKd,"PARD3_3, Q8TEW0; [2]",below the threshold
same,pKd,"RADIL, Q96JH8; [2]",below the threshold
same,pKd,"SNTG2, Q9NY99; [2]",below the threshold
same,pKd,"SNX27, Q96L92; [2]",4.95
same,pKd,"SYNJ2BP, P57105; [2]",below the threshold
same,pKd,"TJP2_1, Q9UDY2; [2]",below the threshold
"GEDRSPPTAL [MKNK1, Q9BUB5]",pKd,"AHNAK1, Q09666; [1]",below the threshold
same,pKd,"APBA3_1, O96018; [1]",below the threshold
same,pKd,"DLG1_3, Q12959; [1]",below the threshold
same,pKd,"DLG3_3, Q92796; [1]",below the threshold
same,pKd,"DLG4_3, P78352; [1]",3.5
same,pKd,"DLG5_1, Q8TDM6; [1]",below the threshold
same,pKd,"FRMPD3, Q5JV73; [1]",below the threshold
same,pKd,"GRASP, Q7Z6J2; [1]",4.62
same,pKd,"IL16_4, Q14005; [1]",below the threshold
same,pKd,"Inadl_2, Q8NI35; [1]",below the threshold
same,pKd,"Inadl_6, Q8NI35; [1]",below the threshold
same,pKd,"Inadl_9, Q8NI35; [1]",below the threshold
same,pKd,"LIN7B, Q9HAP6; [1]",below the threshold
same,pKd,"LRRC7, Q96NW7; [1]",below the threshold
same,pKd,"MAGI1_2, Q96QZ7; [1]",below the threshold
same,pKd,"MAST1, Q9Y2H9; [1]",4.1
same,pKd,"MPDZ_10, O75970; [1]",below the threshold
same,pKd,"MPP6, Q9NZW5; [1]",3.59
same,pKd,"NHERF2_2, Q15599; [1]",3.91
same,pKd,"NHERF4_1, Q86UT5-2; [1]",4.34
same,pKd,"NOS1, P29475; [1]",3.8
same,pKd,"PARD3B_1, Q8TEW8; [1]",3.63
same,pKd,"PARD3_3, Q8TEW0; [1]",below the threshold
same,pKd,"RADIL, Q96JH8; [1]",below the threshold
same,pKd,"SNTG2, Q9NY99; [1]",3.7
same,pKd,"SNX27, Q96L92; [1]",below the threshold
same,pKd,"SYNJ2BP, P57105; [1]",below the threshold
same,pKd,"TJP2_1, Q9UDY2; [1]",below the threshold
